# Measured values published in patent US20220041999A1 (NEOGENE THERAPEUTICS B V, published 2022).
# Legend:
# sFOS-mDHFR_B = target: T1, sFOS-mDHFR_B (murine); test: cell-based or functional assay
# T1 chain: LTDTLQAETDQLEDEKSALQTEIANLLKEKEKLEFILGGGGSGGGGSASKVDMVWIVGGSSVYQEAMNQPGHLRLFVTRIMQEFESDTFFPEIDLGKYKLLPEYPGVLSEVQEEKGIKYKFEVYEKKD
# FOS^MUT4AA-mDHFR_B [1] = target: T2, FOS^MUT4AA-mDHFR_B; test: cell-based or functional assay
# T2 chain: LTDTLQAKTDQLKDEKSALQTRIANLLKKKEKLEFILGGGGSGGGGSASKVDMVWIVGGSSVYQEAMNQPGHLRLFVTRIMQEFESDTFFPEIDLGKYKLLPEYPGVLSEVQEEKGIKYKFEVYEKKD
# sFOS^MUT8AA-mDHFR_B = target: T3, sFOS^MUT8AA-mDHFR_B; test: cell-based or functional assay
# T3 chain: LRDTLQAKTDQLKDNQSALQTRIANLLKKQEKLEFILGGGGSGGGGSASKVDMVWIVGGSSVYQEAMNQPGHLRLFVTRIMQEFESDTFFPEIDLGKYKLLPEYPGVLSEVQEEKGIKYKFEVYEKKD
# FOS^MUT3AA-mDHFR_B = target: T4, FOS^MUT3AA-mDHFR_B; test: cell-based or functional assay
# T4 chain: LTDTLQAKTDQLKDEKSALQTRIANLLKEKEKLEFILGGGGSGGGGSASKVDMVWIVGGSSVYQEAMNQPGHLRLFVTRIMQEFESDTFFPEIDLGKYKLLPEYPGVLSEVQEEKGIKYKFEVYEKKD
# FOS^WT-mDHFR_B [2] = target: T5, FOS^WT-mDHFR_B; test: cell-based or functional assay
# T5 chain: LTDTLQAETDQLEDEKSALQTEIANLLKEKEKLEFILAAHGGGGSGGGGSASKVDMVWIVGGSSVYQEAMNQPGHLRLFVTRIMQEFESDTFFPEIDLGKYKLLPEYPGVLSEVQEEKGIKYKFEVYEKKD
# FOS^WT-mDHFR_B [3] = target: T5, FOS^WT-mDHFR_B; test: split-DHFR complementation, 100 nM MTX 10 days, FACS
# Text: (§1) FIGS. 44A-44D show the results of MTX selection of double engineered BC76 T cells. Activated human primary T cells isolated from a buffy coat, BC76, were double-infected with retroviral vectors encoding an MTX-resistant murine DHFR^FS mutant (mDHFR) split into an N-terminal and C-terminal protein half (vector A and B), fused to heterodimerizing JUN-FOS leucine zippers. JUN^WT depicts a wildtype JUN leucine zipper, FOS^WT depicts a wildtype FOS leucine zipper, JUN^MUT3AA depicts a mutant JUN leucine zipper containing three acidic amino acids from FOS, FOS^MUT3AA depicts a mutant FOS leucine zipper containing three basic amino acids from JUN, JUN^MUT4AA depicts a mutant JUN leucine zipper containing four acidic amino acids from FOS, FOS^MUT4AA depicts a mutant FOS leucine zipper containing four basic amino acids from JUN. Vector A and B also encoded a Ly6G and CD90.2 transduction marker, respectively. Starting at 4 days post transduction, cells were either left untreated (row 1), or were treated with 100 nM MTX for 10 days (row 2), after which enrichment of double transduced cells was measured by FACS analysis.
# FOS-mDHFRmt_B-2A = target: T6, FOS-mDHFRmt_B-2A; test: cell-based or functional assay
# T6 chain: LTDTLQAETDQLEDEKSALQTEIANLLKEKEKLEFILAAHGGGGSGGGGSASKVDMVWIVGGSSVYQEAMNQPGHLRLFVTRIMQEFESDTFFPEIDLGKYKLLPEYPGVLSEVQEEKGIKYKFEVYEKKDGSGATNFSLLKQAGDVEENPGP
# FOS-mDHFRmt_B = target: T7, FOS-mDHFRmt_B; test: cell-based or functional assay
# T7 chain: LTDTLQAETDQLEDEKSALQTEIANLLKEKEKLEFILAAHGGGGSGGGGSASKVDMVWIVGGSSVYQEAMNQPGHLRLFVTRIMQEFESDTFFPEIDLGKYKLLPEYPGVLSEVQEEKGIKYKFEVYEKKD
# FOS^MUT4AA-mDHFR_B [4] = target: T2, FOS^MUT4AA-mDHFR_B; test: split-DHFR complementation, 100 nM MTX 10 days, FACS
# Text: as §1
molecule,measurement,setting,value
sJUN-mDHFR_A,"fold enrichment of double transduced T cells (FACS), 100 nM MTX 6 days (FIGS. 51A-51B)",sFOS-mDHFR_B,12.3 fold
same,"fold enrichment of double transduced T cells (FACS), shorter zippers, donor A, 100 nM MTX 6 days (FIG. 49)",sFOS-mDHFR_B,66 fold
same,"fold enrichment of double transduced T cells (FACS), shorter zippers, donor B, 100 nM MTX 6 days (FIG. 49)",sFOS-mDHFR_B,7.6 fold
same,"fold enrichment of double transduced T cells (FACS), shorter zippers, donor A, 100 nM MTX 6 days (FIG. 50)",FOS^MUT4AA-mDHFR_B [1],1.5 fold
same,"fold enrichment of double transduced T cells (FACS), shorter zippers, donor B, 100 nM MTX 6 days (FIG. 50)",FOS^MUT4AA-mDHFR_B [1],1.2 fold
same,"fold enrichment of double transduced T cells (FACS), 100 nM MTX 6 days (FIGS. 51A-51B)",sFOS^MUT8AA-mDHFR_B,1.5 fold
same,"fold enrichment of double transduced T cells (FACS), shorter zippers, donor A, 100 nM MTX 6 days (FIG. 49)",FOS^MUT3AA-mDHFR_B,1.7 fold
same,"fold enrichment of double transduced T cells (FACS), shorter zippers, donor B, 100 nM MTX 6 days (FIG. 49)",FOS^MUT3AA-mDHFR_B,1.4 fold
JUN^MUT3AA-mDHFR_A (other) RIARLEEEVKTLEAQNSELASTANMLEEQVAQLKQKVGGGGSGGGGSMVRPLNCIVAVSQNMGIGKNGDFPWPPLRNESKYFQRMTTTSSVEGKQNLVIMGRKTWFSIPEKNRPLKDRINIVLSRELKEPPRGAHFLAKSLDDALRLIEQPEL,"fold enrichment of double transduced T cells (FACS), BC54, 100 nM MTX 2 days",FOS^WT-mDHFR_B [2],3.9 fold
same,"fold enrichment of double transduced T cells (FACS), BC76, 100 nM MTX 10 days",FOS^WT-mDHFR_B [2],19 fold
same,"fold enrichment of double transduced T cells (FACS), donor B, 100 nM MTX 4 days",FOS^WT-mDHFR_B [2],11.2 fold
same,"fold enrichment of double transduced T cells (FACS), shorter zippers, donor A, 100 nM MTX 6 days (FIG. 49)",sFOS-mDHFR_B,3.2 fold
same,"fold enrichment of double transduced T cells (FACS), shorter zippers, donor B, 100 nM MTX 6 days (FIG. 49)",sFOS-mDHFR_B,1.5 fold
same,"fold enrichment of double transduced T cells (FACS), BC54, 100 nM MTX 2 days",FOS^MUT3AA-mDHFR_B,5.6 fold
same,"fold enrichment of double transduced T cells (FACS), BC76, 100 nM MTX 10 days",FOS^MUT3AA-mDHFR_B,72 fold
same,"fold enrichment of double transduced T cells (FACS), donor B, 100 nM MTX 4 days",FOS^MUT3AA-mDHFR_B,10.5 fold
same,"fold enrichment of double transduced T cells (FACS), shorter zippers, donor A, 100 nM MTX 6 days (FIG. 49)",FOS^MUT3AA-mDHFR_B,49 fold
same,"fold enrichment of double transduced T cells (FACS), shorter zippers, donor B, 100 nM MTX 6 days (FIG. 49)",FOS^MUT3AA-mDHFR_B,6.6 fold
JUN^MUT4AA-mDHFR_A (other) RIARLEEEVKTLEAQNSELASTANMLEEQVAQLEQKVGGGGSGGGGSMVRPLNCIVAVSQNMGIGKNGDFPWPPLRNESKYFQRMTTTSSVEGKQNLVIMGRKTWFSIPEKNRPLKDRINIVLSRELKEPPRGAHFLAKSLDDALRLIEQPEL,binding result,FOS^WT-mDHFR_B [3],no binding
same,"fold enrichment of double transduced T cells (FACS), BC76, 100 nM MTX 10 days",FOS^WT-mDHFR_B [2],2.6 fold
same,"fold enrichment of double transduced T cells (FACS), shorter zippers, donor A, 100 nM MTX 6 days (FIG. 50)",sFOS-mDHFR_B,2.2 fold
same,"fold enrichment of double transduced T cells (FACS), shorter zippers, donor B, 100 nM MTX 6 days (FIG. 50)",sFOS-mDHFR_B,1.5 fold
same,"fold enrichment of double knock-in T cells (FACS), BC78, 100 nM MTX 6 days",FOS^MUT4AA-mDHFR_B [1],54 fold
same,"fold enrichment of double transduced T cells (FACS), BC76, 100 nM MTX 10 days",FOS^MUT4AA-mDHFR_B [1],70 fold
same,"fold enrichment of double transduced T cells (FACS), shorter zippers, donor A, 100 nM MTX 6 days (FIG. 50)",FOS^MUT4AA-mDHFR_B [1],39 fold
same,"fold enrichment of double transduced T cells (FACS), shorter zippers, donor B, 100 nM MTX 6 days (FIG. 50)",FOS^MUT4AA-mDHFR_B [1],4.7 fold
JUN-mDHFRmt_A-2A (other) RIARLEEKVKTLKAQNSELASTANMLREQVAQLKQKVMNHGGGGSGGGGSMVRPLNCIVAVSQNMGIGKNGDFPWPPLRNESKYFQRMTTTSSVEGKQNLVIMGRKTWFSIPEKNRPLKDRINIVLSRELKEPPRGAHFLAKSLDDALRLIEQPELGSGATNFSLLKQAGDVEENPGP,"fold enrichment of double transduced T cells (FACS), BC45, 25 nM MTX 4 days",FOS-mDHFRmt_B-2A,5.3 fold
same,"fold enrichment of double transduced T cells (FACS), BC45, 50 nM MTX 4 days",FOS-mDHFRmt_B-2A,10.5 fold
same,"fold enrichment of double transduced T cells (FACS), BC45, further 100 nM MTX 3 days, row 2",FOS-mDHFRmt_B-2A,15.5 fold
same,"fold enrichment of double transduced T cells (FACS), BC45, further 100 nM MTX 3 days, row 3",FOS-mDHFRmt_B-2A,18.9 fold
same,"fold enrichment of double transduced T cells (FACS), BC46, 25 nM MTX 4 days",FOS-mDHFRmt_B-2A,3.6 fold
same,"fold enrichment of double transduced T cells (FACS), BC46, 50 nM MTX 4 days",FOS-mDHFRmt_B-2A,8.3 fold
same,"fold enrichment of double transduced T cells (FACS), BC46, further 100 nM MTX 3 days, row 2",FOS-mDHFRmt_B-2A,10.4 fold
same,"fold enrichment of double transduced T cells (FACS), BC46, further 100 nM MTX 3 days, row 3",FOS-mDHFRmt_B-2A,16.9 fold
JUN-mDHFRmt_A (other) RIARLEEKVKTLKAQNSELASTANMLREQVAQLKQKVMNHGGGGSGGGGSMVRPLNCIVAVSQNMGIGKNGDFPWPPLRNESKYFQRMTTTSSVEGKQNLVIMGRKTWFSIPEKNRPLKDRINIVLSRELKEPPRGAHFLAKSLDDALRLIEQPEL,"fold enrichment of double transduced T cells (FACS), BC45, 50 nM MTX 4 days",FOS-mDHFRmt_B,4.4 fold
same,"fold enrichment of double transduced T cells (FACS), BC45, further 100 nM MTX 3 days, row 2",FOS-mDHFRmt_B,11.3 fold
same,"fold enrichment of double transduced T cells (FACS), BC45, further 100 nM MTX 3 days, row 3",FOS-mDHFRmt_B,94 fold
same,"fold enrichment of double transduced T cells (FACS), BC46, 50 nM MTX 4 days",FOS-mDHFRmt_B,6.2 fold
same,"fold enrichment of double transduced T cells (FACS), BC46, further 100 nM MTX 3 days, row 2",FOS-mDHFRmt_B,4 fold
same,"fold enrichment of double transduced T cells (FACS), BC46, further 100 nM MTX 3 days, row 3",FOS-mDHFRmt_B,23.2 fold
JUN^WT-mDHFR_A (other) RIARLEEKVKTLKAQNSELASTANMLREQVAQLKQKVMNHGGGGSGGGGSMVRPLNCIVAVSQNMGIGKNGDFPWPPLRNESKYFQRMTTTSSVEGKQNLVIMGRKTWFSIPEKNRPLKDRINIVLSRELKEPPRGAHFLAKSLDDALRLIEQPEL,binding result,FOS^MUT4AA-mDHFR_B [4],no binding
same,"fold enrichment of double transduced T cells (FACS), BC54, 100 nM MTX 2 days",FOS^WT-mDHFR_B [2],6.8 fold
same,"fold enrichment of double transduced T cells (FACS), BC76, 100 nM MTX 10 days",FOS^WT-mDHFR_B [2],132 fold
same,"fold enrichment of double transduced T cells (FACS), donor B, 100 nM MTX 4 days",FOS^WT-mDHFR_B [2],15.5 fold
same,"fold enrichment of double transduced T cells (FACS), BC76, 100 nM MTX 10 days",FOS^MUT4AA-mDHFR_B [1],1.4 fold
same,"fold enrichment of double transduced T cells (FACS), BC54, 100 nM MTX 2 days",FOS^MUT3AA-mDHFR_B,1.9 fold
same,"fold enrichment of double transduced T cells (FACS), BC76, 100 nM MTX 10 days",FOS^MUT3AA-mDHFR_B,3.1 fold
same,"fold enrichment of double transduced T cells (FACS), donor B, 100 nM MTX 4 days",FOS^MUT3AA-mDHFR_B,4 fold
sJUN^MUT8AA-mDHFR_A (other) TIARLEEEVKTLEAKESELASTANMLEEKVAQLEQKVGGGGSGGGGSMVRPLNCIVAVSQNMGIGKNGDFPWPPLRNESKYFQRMTTTSSVEGKQNLVIMGRKTWFSIPEKNRPLKDRINIVLSRELKEPPRGAHFLAKSLDDALRLIEQPEL,"fold enrichment of double transduced T cells (FACS), 100 nM MTX 6 days (FIGS. 51A-51B)",sFOS-mDHFR_B,0.9 fold
same,"fold enrichment of double transduced T cells (FACS), 100 nM MTX 6 days (FIGS. 51A-51B)",sFOS^MUT8AA-mDHFR_B,2.2 fold
